According to the supplement of paper PMC11246515:
± gives the standard deviation of the averaged measurements.

Test: total protein half-life in vivo (active degradation + dilution); higher = more stable protein
[1] = wild type E. coli NCM3722, growth: C-lim chemostat, doubling time 6 h
[2] = wild type E. coli NCM3722, growth: C-lim chemostat, doubling time 12 h
[3] = wild type E. coli NCM3722, growth: N-lim chemostat, doubling time 12 h
[4] = E. coli NCM3722 delta-clpP, growth: N-lim chemostat, doubling time 6 h
[5] = wild type E. coli NCM3722, growth: P-lim chemostat, doubling time 12 h
[6] = E. coli NCM3722 delta-clpP delta-lon delta-hslV, growth: N-lim chemostat, doubling time 6 h
[7] = E. coli NCM3722 delta-hslV, growth: N-lim chemostat, doubling time 6 h
[8] = E. coli NCM3722 delta-lon, growth: N-lim chemostat, doubling time 6 h
[9] = E. coli NCM3722 delta-smpB, growth: N-lim chemostat, doubling time 6 h
[10] = wild type E. coli NCM3722, growth: C-lim chemostat, doubling time 3 h
[11] = wild type E. coli NCM3722, growth: N-lim chemostat, doubling time 6 h
[12] = wild type E. coli NCM3722, growth: P-lim chemostat, doubling time 6 h

Sequence | total protein half-life in vivo [1] | total protein half-life in vivo [2] | total protein half-life in vivo [3] | total protein half-life in vivo [4] | total protein half-life in vivo [5] | total protein half-life in vivo [6] | total protein half-life in vivo [7] | total protein half-life in vivo [8] | total protein half-life in vivo [9] | total protein half-life in vivo [10] | total protein half-life in vivo [11] | total protein half-life in vivo [12]
MANGWTGNILRVNLTTGNITLEDSSKFKSFVGGMGFGYKIMYDEVPPGTKPFDEANKLVFATGPLTGSGAPCSSRVNITSLSTFTKGNLVVDAHMGGFFAAQMKFAGYDVIIIEGKAKSPVWLKIKDDKVSLEKADFLWGKGTRATTEEICRLTSPETCVAAIGQAGENLVPLSGMLNSRNHSGGAGTGAIMGSKNLKAIAVEGTKGVNIADRQEMKRLNDYMMTELIGANNNHVVPSTPQSWAEYSDPKSRWTARKGLFWGAAEGGPIETGEIPPGNQNTVGFRTYKSVFDLGPAAEKYTVKMSGCHSCPIRCMTQMNIPRVKEFGVPSTGGNTCVANFVHTTIFPNGPKDFEDKDDGRVIGNLVGLNLFDDYGLWCNYGQLHRDFTYCYSKGVFKRVLPAEEYAEIRWDQLEAGDVNFIKDFYYRLAHRVGELSHLADGSYAIAERWNLGEEYWGYAKNKLWSPFGYPVHHANEASAQVGSIVNCMFNRDCMTHTHINFIGSGLPLKLQREVAKELFGSEDAYDETKNYTPINDAKIKYAKWSLLRVCLHNAVTLCNWVWPMTVSPLKSRNYRGDLALEAKFFKAITGEEMTQEKLDLAAERIFTLHRAYTVKLMQTKDMRNEHDLICSWVFDKDPQIPVFTEGTDKMDRDDMHASLTMFYKEMGWDPQLGCPTRETLQRLGLEDIAADLAAHNLLPA | 5.09 h | 10.2 ± 4.6 h | 7.93 ± 1.3 h | – | – | – | – | – | – | – | – | –
MANLLNKFIMTRILAAITLLLSIVLTILVTIFCSVPIIIAGIVKLLLPVPVIWRKVSRFCDFMMYCWCEGLAVLLHLNPHLQWEVHGLEGLSKKNWYLLICNHRSWADIVVLCVLFRKHIPMNKYFLKQQLAWVPFLGLACWSLDMPFMKRYSRAYLLRHPERRGKDVETTRRSCEKFRLHPTTIVNFVEGSRFTQEKHQQTHSTFQNLLPPKAAGIAMALNVLGKQFDKLLNVTLCYPDNNRQPFFDMLSGKLTRIVVHVDLQPIADELHGDYINDKSFKRHFQQWLNSLWQEKDRLLTSLMSSQRQNK | 6.03 h | – | 10.5 h | 6.87 h | 13.6 h | – | – | – | – | – | – | –
MANPTVIKLQDGNVMPQLGLGVWQASNEEVITAIQKALEVGYRSIDTAAAYKNEEGVGKALKNASVNREELFITTKLWNDDHKRPREALLDSLKKLQLDYIDLYLMHWPVPAIDHYVEAWKGMIELQKEGLIKSIGVCNFQIHHLQRLIDETGVTPVINQIELHPLMQQRQLHAWNATHKIQTESWSPLAQGGKGVFDQKVIRDLADKYGKTPAQIVIRWHLDSGLVVIPKSVTPSRIAENFDVWDFRLDKDELGEIAKLDQGKRLGPDPDQFGG | 6.23 ± 0.55 h | 11.8 ± 1.7 h | 8.91 ± 0.27 h | 5.3 ± 0.9 h | 13.3 ± 2.8 h | 5.16 ± 0.27 h | 5.36 ± 0.068 h | 5.7 ± 0.23 h | 5.17 ± 0.29 h | 3.7 ± 0.23 h | 4.8 ± 0.42 h | 5.85 ± 0.2 h
MANVEIYTKETCPYCHRAKALLSSKGVSFQELPIDGNAAKREEMIKRSGRTTVPQIFIDAQHIGGCDDLYALDARGGLDPLLK [P0AC62] | 5.23 ± 1 h | – | 9.44 ± 2.5 h | 5.58 ± 0.71 h | 12.6 ± 1.1 h | 6.58 h | 4.93 ± 0.091 h | 5.33 ± 0.32 h | 5.71 ± 1.9 h | 2.89 ± 0.5 h | 4.68 h | 5.35 ± 0.39 h
MANWLNQLQSLLGQSSSSTSSSADQGLVKLLVPGALGGLAGLLVANKSARKLLTKYGTNALLVGGGAVAGTVLWNKYKDKIRAAHQDEPQFGAQSTPLDERTARLILALVFAAKSDGHIDAKERAAIDQQLRGAGVEEQGRVLIEQAIEQPLDPQRLATGVRNEEEALEIYFLSCAAIDIDHFMERSYLNALGDALKIPQDVRDGIERDLEQQKRTLAE | 4.49 ± 0.37 h | 9.68 ± 3.4 h | 8.34 ± 0.38 h | – | 5.708 ± 0.041 h | 5.293 ± 0.0053 h | 3.74 ± 0.12 h | 3.56 ± 0.13 h | 4.47 ± 0.86 h | 2.22 ± 0.19 h | 4.91 ± 1.6 h | 3.34 ± 0.58 h
MAQEIELKFIVNHSAVEALRDHLNTLGGEHHDPVQLLNIYYETPDNWLRGHDMGLRIRGENGRYEMTMKVAGRVTGGLHQRPEYNVALSEPTLDLAQLPTEVWPNGELPADLASRVQPLFSTDFYREKWLVAVDGSQIEIALDQGEVKAGEFAEPICELELELLSGDTRAVLKLANQLVSQTGLRQGSLSKAARGYHLAQGNPAREIKPTTILHVAAKADVEQGLEAALELALAQWQYHEELWVRGNDAAKEQVLAAISLVRHTLMLFGGIVPRKASTHLRDLLTQCEATIASAVSAVTAVYSTETAMAKLALTEWLVSKAWQPFLDAKAQGKISDSFKRFADIHLSRHAAELKSVFCQPLGDRYRDQLPRLTRDIDSILLLAGYYDPVVAQAWLENWQGLHHAIATGQRIEIEHFRNEANNQEPFWLHSGKR | 6.25 ± 0.19 h | 10.7 ± 1.1 h | 8.65 ± 0.74 h | 5.48 ± 0.56 h | 11.6 ± 1.1 h | 5.73 ± 0.11 h | 5.22 ± 0.088 h | 4.91 ± 1.1 h | 4.78 ± 0.12 h | 3.09 ± 0.13 h | 5.37 ± 0.26 h | 6.02 ± 0.58 h
MAQEYTVEQLNHGRKVYDFMRWDYWAFGISGLLLIAAIVIMGVRGFNWGLDFTGGTVIEITLEKPAEIDVMRDALQKAGFEEPMLQNFGSSHDIMVRMPPAEGETGGQVLGSQVLKVINESTNQNAAVKRIEFVGPSVGADLAQTGAMALMAALLSILVYVGFRFEWRLAAGVVIALAHDVIITLGILSLFHIEIDLTIVASLMSVIGYSLNDSIVVSDRIRENFRKIRRGTPYEIFNVSLTQTLHRTLITSGTTLMVILMLYLFGGPVLEGFSLTMLIGVSIGTASSIYVASALALKLGMKREHMLQQKVEKEGADQPSILP [P0AG93] | 5.67 ± 0.76 h | 8.4 ± 5.1 h | 10.2 ± 0.42 h | – | – | – | 6.16 h | 5.2883 ± 0.0031 h | – | 3.4 ± 0.44 h | – | 6.06 ± 1 h
MAQFYSAKRRTTTRQIITVSVNDLDSFGQGVARHNGKTLFIPGLLPQENAEVTVTEDKKQYARAKVVRRLSDSPERETPRCPHFGVCGGCQQQHASVDLQQRSKSAALARLMKHDVSEVIADVPWGYRRRARLSLNYLPKTQQLQMGFRKAGSSDIVDVKQCPILAPQLEALLPKVRACLGSLQAMRHLGHVELVQATSGTLMILRHTAPLSSADREKLERFSHSEGLDLYLAPDSEILETVSGEMPWYDSNGLRLTFSPRDFIQVNAGVNQKMVARALEWLDVQPEDRVLDLFCGMGNFTLPLATQAASVVGVEGVPALVEKGQQNARLNGLQNVTFYHENLEEDVTKQPWAKNGFDKVLLDPARAGAAGVMQQIIKLEPIRIVYVSCNPATLARDSEALLKAGYTIARLAMLDMFPHTGHLESMVLFSRVK | 5.12 ± 0.17 h | 9.07 ± 0.16 h | 6.93 ± 0.14 h | 5.11 ± 0.95 h | 10.7 ± 2.4 h | 5.4 ± 0.1 h | 4.34 ± 0.43 h | 4.54 ± 0.058 h | 3.9767 ± 0.00076 h | 2.96 ± 0.12 h | 4.203 ± 0.032 h | 4.49 ± 1 h
MAQIDFRKKINWHRRYRSPQGVKTEHEILRIFESDRGRIINSPAIRRLQQKTQVFPLERNAAVRTRLTHSMEVQQVGRYIAKEILSRLKELKLLEAYGLDELTGPFESIVEMSCLMHDIGNPPFGHFGEAAINDWFRQRLHPEDAESQPLTDDRCSVAALRLRDGEEPLNELRRKIRQDLCHFEGNAQGIRLVHTLMRMNLTWAQVGGILKYTRPAWWRGETPETHHYLMKKPGYYLSEEAYIARLRKELNLALYSRFPLTWIMEAADDISYCVADLEDAVEKRIFTVEQLYHHLHEAWGQHEKGSLFSLVVENAWEKSRSNSLSRSTEDQFFMYLRVNTLNKLVPYAAQRFIDNLPAIFAGTFNHALLEDASECSDLLKLYKNVAVKHVFSHPDVERLELQGYRVISGLLEIYRPLLSLSLSDFTELVEKERVKRFPIESRLFHKLSTRHRLAYVEAVSKLPSDSPEFPLWEYYYRCRLLQDYISGMTDLYAWDEYRRLMAVEQ | 6.17 ± 0.39 h | 11.6 ± 0.46 h | 11 ± 0.68 h | 5.726 ± 0.025 h | 12.2 ± 0.22 h | 5.23 ± 0.2 h | 6.52 ± 1.8 h | 5.63 ± 0.46 h | 5.16 ± 0.065 h | 3.281 ± 0.016 h | 6.14 ± 1.6 h | 5.52 ± 0.37 h
MAQITTTDANEFSSSAEFIPMRGFSNCHLQTMLPRLFRRQVKFTPYWQRLELPDGDFVDLAWSENPAQAQHKPRLVVFHGLEGSLNSPYAHGLVEAAQKRGWLGVVMHFRGCSGEPNRMHRIYHSGETEDASWFLRWLQREFGHAPTAAVGYSLGGNMLACLLAKEGNDLPVDAAVIVSAPFMLEACSYHMEKGFSRVYQRYLLNLLKANAARKLAAYPGTLPINLAQLKSVRRIREFDDLITARIHGYADAIDYYRQCSAMPMLNRIAKPTLIIHAKDDPFMDHQVIPKPESLPPQVEYQLTEHGGHVGFIGGTLLHPQMWLESRIPDWLTTYLEAKSC | – | 3.84 h | – | – | 4.3 h | 3.69 h | – | – | – | – | – | 2.34 h
MAQLYFYYSAMNAGKSTALLQSSYNYQERGMRTVVYTAEIDDRFGAGKVSSRIGLSSPAKLFNQNSSLFDEIRAEHEQQAIHCVLVDECQFLTRQQVYELSEVVDQLDIPVLCYGLRTDFRGELFIGSQYLLAWSDKLVELKTICFCGRKASMVLRLDQAGRPYNEGEQVVIGGNERYVSVCRKHYKEALQVDSLTAIQERHRHD | 4.98 ± 0.062 h | 10.3 ± 0.56 h | 6.8 ± 0.12 h | 4.06 ± 0.5 h | 11.7 ± 0.69 h | 4.73 ± 0.29 h | 3.97 ± 0.089 h | 5.17 ± 1.3 h | 3.82 ± 0.42 h | 2.47 ± 0.051 h | 3.86 ± 0.31 h | 5.92 ± 0.58 h
